Data: publication PMC7668070 (Proceedings of the National Academy of Sciences of the …, 2020)

Each binder was assayed against SARS-CoV-2 spike RBD monomer (328-533), 8XHis tag, AviTag, biotinylated (SARS-CoV-2) (assay: flow cytometry on cells). Conditions: one partner purified.

Row | Binder | Kd [nM]
1 | S19P/N33S/H34V/F40L/N49D/L100P ACE2(614), Aga2p-GFP construct Y375, displayed on yeast (designed binder) QPTIEEQAKTFLDKFSVEAEDLLYQSSLASWDYNTNITEENVQNMNNAGDKWSAFLKEQSTLAQMYPLQEIQNLTVKLQLQAPQQNGSSVLSEDKSKRLNTILNTMSTIYSTGKVCNPDNPQECLLLEPGLNEIMANSLDYNERLWAWESWRSEVGKQLRPLYEEYVVLKNEMARANHYEDYGDYWRGDYEVNGVDGYDYSRGQLIEDVEHTFEEIKPLYEHLHAYVRAKLMNAYPSYISPIGCLPAHLLGDMWGRFWTNLYSLTVPFGQKPNIDVTDAMVDQAWDAQRIFKEAEKFFVSVGLPNMTQGFWENSMLTDPGNVQKAVCHPTAWDLGKGDFRILMCTKVTMDDFLTAHHEMGHIQYDMAYAAQPFLLRNGANEGFHEAVGEIMSLSAATPKHLKSIGLLSPDFQEDNETEINFLLKQALTIVGTLPFTYMLEKWRWMVFKGEIPKDQWMKKWWEMKREIVGVVEPVPHDETYCDPASLFHVSNDYSFIRYYTRTLYQFQFQEALCQAAKHEGPLHKCDISNSTEAGQKLFNMLRLGKSEPWTLALENVVGAKNMNVRPLLNYFEPLFTWLKDQNKNSFVGWSTDWSPYA | 0.61
2 | K31Y/W69V/L79T/L91P ACE2(614), Aga2p-GFP construct Y311, displayed on yeast (designed binder) QSTIEEQAKTFLDYFNHEAEDLFYQSSLASWNYNTNITEENVQNMNNAGDKVSAFLKEQSTTAQMYPLQEIQNPTVKLQLQALQQNGSSVLSEDKSKRLNTILNTMSTIYSTGKVCNPDNPQECLLLEPGLNEIMANSLDYNERLWAWESWRSEVGKQLRPLYEEYVVLKNEMARANHYEDYGDYWRGDYEVNGVDGYDYSRGQLIEDVEHTFEEIKPLYEHLHAYVRAKLMNAYPSYISPIGCLPAHLLGDMWGRFWTNLYSLTVPFGQKPNIDVTDAMVDQAWDAQRIFKEAEKFFVSVGLPNMTQGFWENSMLTDPGNVQKAVCHPTAWDLGKGDFRILMCTKVTMDDFLTAHHEMGHIQYDMAYAAQPFLLRNGANEGFHEAVGEIMSLSAATPKHLKSIGLLSPDFQEDNETEINFLLKQALTIVGTLPFTYMLEKWRWMVFKGEIPKDQWMKKWWEMKREIVGVVEPVPHDETYCDPASLFHVSNDYSFIRYYTRTLYQFQFQEALCQAAKHEGPLHKCDISNSTEAGQKLFNMLRLGKSEPWTLALENVVGAKNMNVRPLLNYFEPLFTWLKDQNKNSFVGWSTDWSPYA | 0.64
3 | S19P/Q42L/L79T/N90Q ACE2(614), Aga2p-GFP construct Y355, displayed on yeast (designed binder) QPTIEEQAKTFLDKFNHEAEDLFYLSSLASWNYNTNITEENVQNMNNAGDKWSAFLKEQSTTAQMYPLQEIQQLTVKLQLQALQQNGSSVLSEDKSKRLNTILNTMSTIYSTGKVCNPDNPQECLLLEPGLNEIMANSLDYNERLWAWESWRSEVGKQLRPLYEEYVVLKNEMARANHYEDYGDYWRGDYEVNGVDGYDYSRGQLIEDVEHTFEEIKPLYEHLHAYVRAKLMNAYPSYISPIGCLPAHLLGDMWGRFWTNLYSLTVPFGQKPNIDVTDAMVDQAWDAQRIFKEAEKFFVSVGLPNMTQGFWENSMLTDPGNVQKAVCHPTAWDLGKGDFRILMCTKVTMDDFLTAHHEMGHIQYDMAYAAQPFLLRNGANEGFHEAVGEIMSLSAATPKHLKSIGLLSPDFQEDNETEINFLLKQALTIVGTLPFTYMLEKWRWMVFKGEIPKDQWMKKWWEMKREIVGVVEPVPHDETYCDPASLFHVSNDYSFIRYYTRTLYQFQFQEALCQAAKHEGPLHKCDISNSTEAGQKLFNMLRLGKSEPWTLALENVVGAKNMNVRPLLNYFEPLFTWLKDQNKNSFVGWSTDWSPYA | 0.94
4 | K31F/N33D/H34A/E35Q/N49D/N51S/N53S/E57G/N64D ACE2(614), Aga2p-GFP construct Y354, displayed on yeast (designed binder) QSTIEEQAKTFLDFFDAQAEDLFYQSSLASWDYSTSITEGNVQNMNDAGDKWSAFLKEQSTLAQMYPLQEIQNLTVKLQLQALQQNGSSVLSEDKSKRLNTILNTMSTIYSTGKVCNPDNPQECLLLEPGLNEIMANSLDYNERLWAWESWRSEVGKQLRPLYEEYVVLKNEMARANHYEDYGDYWRGDYEVNGVDGYDYSRGQLIEDVEHTFEEIKPLYEHLHAYVRAKLMNAYPSYISPIGCLPAHLLGDMWGRFWTNLYSLTVPFGQKPNIDVTDAMVDQAWDAQRIFKEAEKFFVSVGLPNMTQGFWENSMLTDPGNVQKAVCHPTAWDLGKGDFRILMCTKVTMDDFLTAHHEMGHIQYDMAYAAQPFLLRNGANEGFHEAVGEIMSLSAATPKHLKSIGLLSPDFQEDNETEINFLLKQALTIVGTLPFTYMLEKWRWMVFKGEIPKDQWMKKWWEMKREIVGVVEPVPHDETYCDPASLFHVSNDYSFIRYYTRTLYQFQFQEALCQAAKHEGPLHKCDISNSTEAGQKLFNMLRLGKSEPWTLALENVVGAKNMNVRPLLNYFEPLFTWLKDQNKNSFVGWSTDWSPYA | 0.45
5 | K31F/H34I/E35Q ACE2(614), Aga2p-GFP construct Y293, displayed on yeast (designed binder) QSTIEEQAKTFLDFFNIQAEDLFYQSSLASWNYNTNITEENVQNMNNAGDKWSAFLKEQSTLAQMYPLQEIQNLTVKLQLQALQQNGSSVLSEDKSKRLNTILNTMSTIYSTGKVCNPDNPQECLLLEPGLNEIMANSLDYNERLWAWESWRSEVGKQLRPLYEEYVVLKNEMARANHYEDYGDYWRGDYEVNGVDGYDYSRGQLIEDVEHTFEEIKPLYEHLHAYVRAKLMNAYPSYISPIGCLPAHLLGDMWGRFWTNLYSLTVPFGQKPNIDVTDAMVDQAWDAQRIFKEAEKFFVSVGLPNMTQGFWENSMLTDPGNVQKAVCHPTAWDLGKGDFRILMCTKVTMDDFLTAHHEMGHIQYDMAYAAQPFLLRNGANEGFHEAVGEIMSLSAATPKHLKSIGLLSPDFQEDNETEINFLLKQALTIVGTLPFTYMLEKWRWMVFKGEIPKDQWMKKWWEMKREIVGVVEPVPHDETYCDPASLFHVSNDYSFIRYYTRTLYQFQFQEALCQAAKHEGPLHKCDISNSTEAGQKLFNMLRLGKSEPWTLALENVVGAKNMNVRPLLNYFEPLFTWLKDQNKNSFVGWSTDWSPYA | 1.71
